Measurements taken from PMC11602913 (EJNMMI Radiopharmacy and Chemistry, 2024).

Tests used:
[1] = DOTA and its derivatives; ref Mirzadeh et al. [1993]; Bauer et al. [2024]; cited from earlier work
From the text: (§1) The well-known chelator DOTA and its derivatives tend to lose up to 40% of ^212Bi from its ^212Pb-complexes due to β^–-conversion accompanied by 38% conversion electrons and a cascade of Auger-Meitner electrons (Mirzadeh et al. [1993]; Bauer et al. [2024]). […] PSC-PEG2-TOC (VMT-α-NET) is a somatostatin receptor subtype 2 (SSTR2) targeting peptide of very high stability for the treatment of neuroendocrine tumours ...

[2] = test system: somatostatin receptor subtype 2 (SSTR2); conditions: ref Li et al. [2023]; cited from earlier work
From the text: as §1

[3] = Stability of the 212Pb-labelled product at room temperature (radio-TLC); assay type: physicochemical
Description: Since the radiolysis and alpha decay is often discussed as fatal for the radiolabelled molecules in solution (Roscher et al. [2020]), the stability of the ^212Pb-labelled product was tested at room temperature. A TLC sample was taken from the product vial 4 h after radiosynthesis. Right after development of the TLC strip, > 20% of activity was found as unbound activity at the front of the TLC (Fig. S3). […] The activity at the front of the TLC was mainly due to free ^208Tl, which is reasonable due to 36% direct alpha decay from ^212Bi.
RCP was monitored by thin-layer chromatography (TLC) on iTLC-SG plates (Agilent, Santa Clara, California, USA). Measurement of the radionuclidic purity (RNP) and evaluation of the radio-TLC and was performed with a thin-layer scanner (MiniScanPRO + , Eckert&Ziegler Eurotope GmbH, Berlin, Germany) equipped with a Model 43–2 alpha detector ZnS(Ag) scintillator (Ludlum Measurements, Sweetwater, Texas, USA) and a built-in multi-channel analyzer for gamma spectroscopy.

[4] = test system: neuroendocrine tumours (NET); assay: Individual patient application of the 212Pb-labelled peptide; assay type: in vivo, human; conditions: patients, doses of 1–1.5 MBq/kg
Description: The precursor concentration (0.1 µg/MBq) results in a maximum mass of 50 µg (31.7 nmol) for 500 MBq ^212Pb-labelled peptide, which is half to the mass used for routine ^177Lu-preparations with 5000 MBq (Brogsitter et al. [2017]). At this concentration, any ^212Bi generated during the reaction time by free ^212Pb is rebound by the precursor (Li et al. [2023]). Typically, doses of 1–1.5 MBq/kg were administered per patient. […] The detailed results of patient treatments will be discussed in a further publication.

Compound: O=C(O)CN1CCN(CC(=O)O)CCN(CC(=O)O)CCN(CC(=O)O)CC1 [DOTA]
- loss of 212Bi from 212Pb-complexes due to β−-conversion [1]: up to 40%

Compound: PSC-PEG2-TOC [VMT-α-NET]
- renal excretion [2]: fast renal excretion
- tumour accumulation [2]: rapid tumour accumulation
- tumour retention [2]: high tumour retention

Compound: [^212Pb]Pb-PSC-PEG2-TOC [[^212Pb]Pb-VMT-α-NET]
- free 212Bi together with free 208Tl daughter nuclides observed in the TLCs ([3]; 4 h after radiosynthesis, radio-TLC): up to 20%
- spot for unbound radionuclides on TLC ([3]; product vial at room temperature, TLC sample taken 4 h after radiosynthesis, measured 10 h after development of the TLC strip, iTLC-SG, citrate eluant (Fig. S4)): below 5%
- unbound activity at the front of the TLC ([3]; product vial at room temperature, TLC sample taken 4 h after radiosynthesis, measured right after development of the TLC strip, iTLC-SG, citrate eluant (Fig. S3)): > 20%
- radiolysis of the 212Pb-labelled product ([3]; room temperature, within 4 h after radiosynthesis, radio-TLC): no significant radiolysis
- disease response in individual patient application [4]: stable disease for more than six months
